Measured values as given in US20230250438.

Target: Transferrin receptor (TfR) (Mus musculus) (UniProt Q62351)
Experiment: pulldown
Conditions: B = Bn-dU, unit not given

Chain of Transferrin receptor (TfR) (Mus musculus) (Q62351 89-763): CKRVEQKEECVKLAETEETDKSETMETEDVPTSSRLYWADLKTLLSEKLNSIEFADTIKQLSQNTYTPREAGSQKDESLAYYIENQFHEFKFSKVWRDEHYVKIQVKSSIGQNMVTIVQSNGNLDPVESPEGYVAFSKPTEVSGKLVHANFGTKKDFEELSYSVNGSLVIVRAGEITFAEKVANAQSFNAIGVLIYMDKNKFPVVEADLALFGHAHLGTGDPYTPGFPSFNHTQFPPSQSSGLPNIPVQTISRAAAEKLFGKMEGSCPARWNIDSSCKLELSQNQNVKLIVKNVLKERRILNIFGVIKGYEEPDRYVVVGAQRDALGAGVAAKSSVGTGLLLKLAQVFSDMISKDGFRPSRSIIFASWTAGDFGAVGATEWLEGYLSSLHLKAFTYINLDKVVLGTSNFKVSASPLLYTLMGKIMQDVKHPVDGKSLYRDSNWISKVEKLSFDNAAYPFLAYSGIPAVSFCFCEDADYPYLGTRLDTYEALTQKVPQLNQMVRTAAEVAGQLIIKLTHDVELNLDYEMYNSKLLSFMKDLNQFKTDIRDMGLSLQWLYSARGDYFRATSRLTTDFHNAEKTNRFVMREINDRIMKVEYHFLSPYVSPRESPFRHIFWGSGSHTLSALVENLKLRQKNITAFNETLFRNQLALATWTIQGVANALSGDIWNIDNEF

GAATTCAAAAGTGTCGGTGATTTGCCTCGTCGCTCCAATGT [CMe 8]
Kd (2'-OMe at C35 [Bn-dU at 4,5,12,14,18,21,22,23,27,30,34,39,41, 2'-OMe at C35], SB18, 5 mM MgCl2, 37 C): 8.46

GAATTCAAAAGTGTCGGTGATTTGCCTCGTCGCTCCAATGT [CMe 2]
Kd (2'-OMe at C15 [Bn-dU: 4,5,12,14,18,21,22,23,27,30,34,39,41, 2'-OMe: 15], SB18, 5 mM MgCl2, 37 C): 11.4

GAATTCAAAAGTGTCGGTGATTTGCCTCGTCGCTCCAATGT [CMe 4]
Kd (2'-OMe at C26 [Bn-dU: 4,5,12,14,18,21,22,23,27,30,34,39,41, 2'-OMe: 26], SB18, 5 mM MgCl2, 37 C): 6.94

GAATTCAAAAGTGTCGGTGATTTGCCTCGTCGCTCCAATGT [CMe 3]
Kd (2'-OMe at C25 [Bn-dU: 4,5,12,14,18,21,22,23,27,30,34,39,41, 2'-OMe: 25], SB18, 5 mM MgCl2, 37 C): 11.1

GAATTCAAAAGTGTCGGTGATTTGCCTCGTCGCTCCAATGT [CMe 9]
Kd (2'-OMe at C36 [Bn-dU at 4,5,12,14,18,21,22,23,27,30,34,39,41, 2'-OMe at C36], SB18, 5 mM MgCl2, 37 C): 7.66

GAATTCAAAAGTGTCGGTGATUTGCCTCGTCGCTCCAATGT [UMe 7]
Kd (2'-OMe-U at 22 [Bn-dU: 4,5,12,14,18,21,23,27,30,34,39,41, 2'-OMe-U: 22], Table 11 ratio 2.51 (improved)): 1.84

GAATTCAAAAGTGTCGGTGATTTGCCTCGTCGCUCCAATGT [UMe 11]
Kd (2'-OMe-U at 34 [Bn-dU: 4,5,12,14,18,21,22,23,27,30,39,41, 2'-OMe-U: 34], SB18, 5 mM MgCl2, 37 C): 17.8

GAATTCAAAAGTGTCGGTGATTTGCCTCGUCGCTCCAATGT [UMe 10]
Kd (2'-OMe-U at 30 [Bn-dU: 4,5,12,14,18,21,22,23,27,34,39,41, 2'-OMe-U: 30], SB18, 5 mM MgCl2, 37 C): 25.2

GAATUCAAAAGTGTCGGTGATTTGCCTCGTCGCTCCAATGT [UMe 2]
Kd (2'-OMe-U at 5 [2'-OMe-U: 5, Bn-dU: 4,12,14,18,21,22,23,27,30,34,39,41], Table 10 ratio 0.10): 56.4

GAAUTCAAAAGTGTCGGTGATTTGCCTCGTCGCTCCAATGT [UMe 1]
Kd (2'-OMe-U at 4 [2'-OMe-U: 4, Bn-dU: 5,12,14,18,21,22,23,27,30,34,39,41], Table 10 ratio 0.13): 42.6

GAATTCAAAAGTGTCGGTGATTTGCCUCGTCGCTCCAATGT [UMe 9]
Kd (2'-OMe-U at 27 [Bn-dU: 4,5,12,14,18,21,22,23,30,34,39,41, 2'-OMe-U: 27], SB18, 5 mM MgCl2, 37 C): 18.3

GAATTCAAAAGTGTCGGTGATTTGCCTCGTCGCTCCAAUGT [UMe 12]
Kd (2'-OMe-U at 39 [Bn-dU: 4,5,12,14,18,21,22,23,27,30,34,41, 2'-OMe-U: 39], SB18, 5 mM MgCl2, 37 C): 28

GAATTCAAAAGTGTCGGTGATTTGCCTCGTCGCTCCAATGT [GMe 8]
Kd (2'-OMe at G29 [Bn-dU: 4,5,12,14,18,21,22,23,27,30,34,39,41, 2'-OMe: 29], SB18, 5 mM MgCl2, 37 C): 5.39

GAATTCAAAAGTGTCGGTGATTTGCCTCGTCGCTCCAATGT [GMe 2]
Kd (2'-OMe at G11 [Bn-dU: 4,5,12,14,18,21,22,23,27,30,34,39,41, 2'-OMe-G: 11], SB18, 5 mM MgCl2, 37 C): 9.67

GAATTCAAAAGTGTCGGTGATTTGCCTCGTCGCTCCAATGT [CMe 7]
Kd (2'-OMe at C33 [Bn-dU at 4,5,12,14,18,21,22,23,27,30,34,39,41, 2'-OMe at C33], Table 11 ratio 3.36 (improved)): 0.363

GAATTCAAAAGTGUCGGTGATTTGCCTCGTCGCTCCAATGT [UMe 4]
Kd (2'-OMe-U at 14 [Bn-dU: 4,5,12,18,21,22,23,27,30,34,39,41, 2'-OMe-U: 14], Table 10 ratio 0.17): 32.4

GAATTCAAAAGTGTCGGTGATTTGCCTCGTCGCTCCAATGU [UMe 13]
Kd (2'-OMe-U at 41 [Bn-dU: 4,5,12,14,18,21,22,23,27,30,34,39, 2'-OMe-U: 41], SB18, 5 mM MgCl2, 37 C): 22.8

GAATTCAAAAGTGTCGGTGATTTGCCTCGTCGCTCCAATGT [GMe 4]
Kd (2'-OMe at G16 [Bn-dU: 4,5,12,14,18,21,22,23,27,30,34,39,41, 2'-OMe: 16], SB18, 5 mM MgCl2, 37 C): 6.33
